# Measured values from paper PMC6029887 (Cell reports, 2018).
# T1: Cys-tagged cadherin-10 adhesive fragment (mouse) (mouse, UniProt P70408 55-261)
# T1 sequence: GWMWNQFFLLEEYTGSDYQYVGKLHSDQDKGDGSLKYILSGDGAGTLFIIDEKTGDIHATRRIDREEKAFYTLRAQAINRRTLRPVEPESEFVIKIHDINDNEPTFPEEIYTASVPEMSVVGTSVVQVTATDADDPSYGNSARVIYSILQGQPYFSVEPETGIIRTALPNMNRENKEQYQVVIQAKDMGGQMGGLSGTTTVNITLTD
# T2: Cys-tagged cadherin-7 adhesive fragment (mouse) (mouse, UniProt Q8BM92 48-254)
# T2 sequence: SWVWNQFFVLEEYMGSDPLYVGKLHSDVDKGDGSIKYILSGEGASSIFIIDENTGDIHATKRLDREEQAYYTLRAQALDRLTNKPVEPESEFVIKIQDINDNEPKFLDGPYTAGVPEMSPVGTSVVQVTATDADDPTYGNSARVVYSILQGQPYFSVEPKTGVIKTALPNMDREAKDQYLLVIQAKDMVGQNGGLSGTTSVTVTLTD
# T3: Cys-tagged cadherin-6 adhesive fragment (mouse) (mouse, UniProt P97326 54-260)
# T3 sequence: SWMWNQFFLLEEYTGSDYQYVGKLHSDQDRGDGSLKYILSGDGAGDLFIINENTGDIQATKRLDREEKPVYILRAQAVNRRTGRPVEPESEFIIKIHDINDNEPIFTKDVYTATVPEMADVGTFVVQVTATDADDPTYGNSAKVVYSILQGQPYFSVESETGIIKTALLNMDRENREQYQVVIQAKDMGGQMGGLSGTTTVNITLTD
# B1: cadherin-20 EC1-EC2 adhesive fragment (mouse), wild-type (domain or fragment)
# chain: SWVWNQFFVLEEYTGTDPLYVGKLHSDMDRGDGSIKYILSGEGAGIVFTIDDTTGDIHAIQRLDREERAQYTLRAQALDRRTGRPMEPESEFIIKIQDINDNEPKFLDGPYIATVPEMSPVGTSVIQVTATDADDPTYGNSARVVYSILQGQPYFSVDSKTGVIRTALMNMDREAKEYYEVIIQAKDMGGQLGGLAGTTTVNITLSDVNDNPPRF
# B2: cadherin-11 EC1-EC2 adhesive fragment (mouse), wild-type (domain or fragment)
# chain: GWVWNQFFVIEEYTGPDPVLVGRLHSDIDSGDGNIKYILSGEGAGTIFVIDDKSGNIHATKTLDREERAQYTLMAQAVDRDTNRPLEPPSEFIVKVQDINDNPPEFLHEIYHANVPERSNVGTSVIQVTASDADDPTYGNSAKLVYSILEGQPYFSVEAQTGIIRTALPNMDREAKEEYHVVIQAKDMGGHMGGLSGTTKVTITLTDVNDNPPKF
# B3: cadherin-24 EC1-EC3 fragment (mouse), wild-type (domain or fragment)
# chain: SWVWNQFFVIEEYSGPEPVLIGKLHSDVDRGEGRTKYLLTGEGAGTVFVIDEATGNIHVTKSLDREEKAQYVLLAQAVDRASNRPLEPPSEFIIKVQDINDNPPVFPLGPYHATVPEMSNVGTSVIQVTAHDADDPSYGNSAKLVYTVLDGLPFFSVDPQTGVVRTAIPNMDRETQEEFLVVIQAKDMGGHMGGLSGSTTVTVTLSDVNDNPPKFPQSLYQFSVVETAGPGTLVGRLKAQDPDLGDNALVAYSILNGEGSEVFSISTDSQGQDGLLTVRKPLDFETRRSYTFRVEATNTLIDPAYLRRGPFKDVASVRVTVQDAPEPPAF
# B4: cadherin-6 EC1-EC2 adhesive fragment (mouse), wild-type (domain or fragment)
# chain: T3 sequence
# B5: cadherin-10 EC1-EC2 adhesive fragment (mouse), wild-type (domain or fragment)
# chain: T1 sequence
# B6: cadherin-8 EC1-EC3 fragment (mouse), wild-type (domain or fragment)
# chain: GWVWNQMFVLEEFSGPEPILVGRLHTDLDPGSKKIKYILSGDGAGTIFQINDITGDIHAIKRLDREEKAEYTLTAQAVDFETNKPLEPPSEFIIKVQDINDNAPEFLNGPYHATVPEMSILGTSVTNVTATDADDPVYGNSAKLVYSILEGQPYFSIEPETAIIKTALPNMDREAKEEYLVVIQAKDMGGHSGGLSGTTTLTVTLTDVNDNPPKFAQSLYHFSVPEDVVLGTAIGRVKANDQDIGENAQSSYDIIDGDGTALFEITSDAQAQDGVIRLRKPLDFETKKSYTLKVEAANIHIDPRFSSRGPFKDTATVKIVVEDADEPPVF
# B7: cadherin-7 EC1-EC2 adhesive fragment (mouse), wild-type (domain or fragment)
# chain: T2 sequence
# B8: cadherin-22 EC1-EC2 adhesive fragment (mouse), wild-type (domain or fragment)
# chain: GWVWNQFFVVEEYTGTEPLYVGKIHSDSDEGDGTIKYTISGEGAGTIFLIDELTGDIHATERLDREQKTFYTLRAQARDRATNRLLEPESEFIIKVQDINDSEPRFLHGPYIGSVAELSPTGTSVMQVMASDADDPTYGSSARLVYSVLDGEHHFTVDPKTGVIRTAVPDLDRESQERYEVVIQATDMAGQLGGLSGSTTVTIVVTD
# B9: cadherin-9 EC1-EC2 adhesive fragment (mouse), wild-type (domain or fragment)
# chain: GWMWNQFFLLEEYTGTDTQYVGKLHTDQDKGDGNLKYILTGDGAGNLFVIDENTGDIHAAKRLDREEKSLYILRAKAIDRKTGRQVEPESEFIIKIHDINDNEPKFTKDLYTASVPEMSGVGTSVIQVTATDADDANYGNSAKVVYSILQGQPYFSVDPESGIIKTALPDMSRENKEQYQVVIQAKDMGGQMGGLSGTTTVNITLTDVNNNPPRF
# B10: cadherin-12 EC1-EC2 adhesive fragment (mouse), wild-type (domain or fragment)
# chain: GWVWNQFFVLEEYMGSEPQYVGKLHSDLDKGEGTVKYTLSGDGAGTVFTIDETTGDIHAIRSLDREEKPFYTLRAQAVDIETRKPLEPESEFIIKVQDINDNEPKFLDGPYVASVPEMSPVGAYVLQVKATDADDPTYGNSARVVYSILQGQPYFSIDPKTGVIRTALPNMDREVKEQYQVLIQAKDMGGQLGGLAGTTVVNITLTDVNDNPPRF
# How the values were obtained:
# [1] = target: cadherin-18 EC1-EC2 adhesive fragment (mouse), wild-type (mouse); experiment: AUC
# [2] = target: chimera cad-6EC111EC2 (cadherin-6 EC1 joined to cadherin-11 EC2) (mouse); experiment: AUC
# [3] = target: chimera cad-11EC16EC2 (cadherin-11 EC1 joined to cadherin-6 EC2) (mouse) (UniProt P97326); experiment: AUC
# [4] = target: Cadherin-11 V3M L20Y Q97H P89E (MYHE) specificity mutant, adhesive fragment (mouse) (mouse); experiment: AUC
# [5] = target: Cadherin-6 M3V Y20L H97Q E89P (VLQP) specificity mutant, adhesive fragment (mouse) (mouse); experiment: AUC
# [6] = target: Cadherin-11 L20Y Q97H (YH) specificity mutant, adhesive fragment (mouse) (mouse); experiment: AUC
# [7] = target: Cadherin-6 Y20L H97Q (LQ) specificity mutant, adhesive fragment (mouse) (mouse); experiment: AUC
# [8] = target: the molecule itself; experiment: AUC
# [9] = target: T1, Cys-tagged cadherin-10 adhesive …; experiment: SPR
# [10] = target: T2, Cys-tagged cadherin-7 adhesive fragment …; experiment: SPR
# [11] = target: T3, Cys-tagged cadherin-6 adhesive fragment …; experiment: SPR
molecule,measurement,setting,value
"cadherin-18 EC1-EC2 adhesive fragment (mouse), wild-type (domain or fragment)",Kd,[1],16.8 µM
chimera cad-6EC111EC2 (cadherin-6 EC1 joined to cadherin-11 EC2) (domain or fragment),Kd,[2],5.6 µM
chimera cad-11EC16EC2 (cadherin-11 EC1 joined to cadherin-6 EC2) (from UniProt P97326 151-260) (domain or fragment),Kd,[3],15.6 µM
"Cadherin-11 V3M L20Y Q97H P89E (MYHE) specificity mutant, adhesive fragment (mouse) (domain or fragment)",Kd,[4],8.2 µM
"Cadherin-6 M3V Y20L H97Q E89P (VLQP) specificity mutant, adhesive fragment (mouse) (domain or fragment)",Kd,[5],6.73 µM
"Cadherin-11 L20Y Q97H (YH) specificity mutant, adhesive fragment (mouse) (domain or fragment)",Kd,[6],11.1 µM
"Cadherin-6 Y20L H97Q (LQ) specificity mutant, adhesive fragment (mouse) (domain or fragment)",Kd,[7],9.63 µM
B1,Kd,[8],9.3 µM
B2,Kd,[8],33.8 µM
B3,Kd,[8],8.2 µM
B4,Kd,[8],3.1 µM
same,binding result,[9],binds
same,binding result,[10],binds
B5,Kd,[8],42.2 µM
same,binding result,[11],binds
same,binding result,[10],binds
B6,Kd,[8],15 µM
B7,Kd,[8],32.2 µM
same,binding result,[11],binds
same,binding result,[9],binds
B8,Kd,[8],3.9 µM
B9,Kd,[8],17 µM
B10,Kd,[8],8.3 µM
